{
  "source": "the supplement of paper PMC10567573",
  "parents": {"B1": {"name": "ZNF511 (parent)", "chain": "EPLPVERDPAAGAAPFRFVARPVR"}, "B2": {"name": "FAM189A2 (parent)", "chain": "CALNALTTTVCLVAAALRYLQIFA"}},
  "data": [
    {"variants_of": "B1", "experiment": "protein stability index of a GFP-peptide fusion (GPS, HEK-293T) (PSI 1-6); higher = more stable", "conditions": "c terminus: a fixed tail appended", "values": [
      {"variant": "EPLLVERDPAAGAAPFRFVARPVR", "note": "[P4L]", "protein stability index": 2.27},
      {"variant": "EPLFVERDPAAGAAPFRFVARPVR", "note": "[P4F]", "protein stability index": 2.52},
      {"variant": "EPLCVERDPAAGAAPFRFVARPVR", "note": "[P4C]", "protein stability index": 1.91},
      {"variant": "EPLHVERDPAAGAAPFRFVARPVR", "note": "[P4H]", "protein stability index": 2.14},
      {"variant": "EPLGVERDPAAGAAPFRFVARPVR", "note": "[P4G]", "protein stability index": 2.63},
      {"variant": "EPLNVERDPAAGAAPFRFVARPVR", "note": "[P4N]", "protein stability index": 2.29},
      {"variant": "EPLAVERDPAAGAAPFRFVARPVR", "note": "[P4A]", "protein stability index": 2.88},
      {"variant": "EPLMVERDPAAGAAPFRFVARPVR", "note": "[P4M]", "protein stability index": 2.66},
      {"variant": "EPLIVERDPAAGAAPFRFVARPVR", "note": "[P4I]", "protein stability index": 2.9},
      {"variant": "EPLKVERDPAAGAAPFRFVARPVR", "note": "[P4K]", "protein stability index": 2.09},
      {"variant": "EPLSVERDPAAGAAPFRFVARPVR", "note": "[P4S]", "protein stability index": 3.43},
      {"variant": "EPLYVERDPAAGAAPFRFVARPVR", "note": "[P4Y]", "protein stability index": 1.64},
      {"variant": "EPLQVERDPAAGAAPFRFVARPVR", "note": "[P4Q]", "protein stability index": 1.99},
      {"variant": "EPLTVERDPAAGAAPFRFVARPVR", "note": "[P4T]", "protein stability index": 2.8},
      {"variant": "EPLVVERDPAAGAAPFRFVARPVR", "note": "[P4V]", "protein stability index": 2.49},
      {"variant": "EPLWVERDPAAGAAPFRFVARPVR", "note": "[P4W]", "protein stability index": 1.58},
      {"variant": "EPLRVERDPAAGAAPFRFVARPVR", "note": "[P4R]", "protein stability index": 3.23},
      {"variant": "VPLPVERDPAAGAAPFRFVARPVR", "note": "[E1V]", "protein stability index": 2.27},
      {"variant": "RPLPVERDPAAGAAPFRFVARPVR", "note": "[E1R]", "protein stability index": 2.39},
      {"variant": "FPLPVERDPAAGAAPFRFVARPVR", "note": "[E1F]", "protein stability index": 2.85},
      {"variant": "DPLPVERDPAAGAAPFRFVARPVR", "note": "[E1D]", "protein stability index": 2.73},
      {"variant": "KPLPVERDPAAGAAPFRFVARPVR", "note": "[E1K]", "protein stability index": 2.06},
      {"variant": "SPLPVERDPAAGAAPFRFVARPVR", "note": "[E1S]", "protein stability index": 2.13},
      {"variant": "IPLPVERDPAAGAAPFRFVARPVR", "note": "[E1I]", "protein stability index": 2.12},
      {"variant": "NPLPVERDPAAGAAPFRFVARPVR", "note": "[E1N]", "protein stability index": 2},
      {"variant": "CPLPVERDPAAGAAPFRFVARPVR", "note": "[E1C]", "protein stability index": 2.64},
      {"variant": "QPLPVERDPAAGAAPFRFVARPVR", "note": "[E1Q]", "protein stability index": 2.9},
      {"variant": "LPLPVERDPAAGAAPFRFVARPVR", "note": "[E1L]", "protein stability index": 2.69},
      {"variant": "PPLPVERDPAAGAAPFRFVARPVR", "note": "[E1P]", "protein stability index": 2.23},
      {"variant": "GPLPVERDPAAGAAPFRFVARPVR", "note": "[E1G]", "protein stability index": 1.85},
      {"variant": "HPLPVERDPAAGAAPFRFVARPVR", "note": "[E1H]", "protein stability index": 2.2},
      {"variant": "YPLPVERDPAAGAAPFRFVARPVR", "note": "[E1Y]", "protein stability index": 1.77},
      {"variant": "TPLPVERDPAAGAAPFRFVARPVR", "note": "[E1T]", "protein stability index": 2.44},
      {"variant": "WPLPVERDPAAGAAPFRFVARPVR", "note": "[E1W]", "protein stability index": 2.35},
      {"variant": "APLPVERDPAAGAAPFRFVARPVR", "note": "[E1A]", "protein stability index": 2.57},
      {"variant": "MPLPVERDPAAGAAPFRFVARPVR", "note": "[E1M]", "protein stability index": 2.38},
      {"variant": "EPLPVENDPAAGAAPFRFVARPVR", "note": "[R7N]", "protein stability index": 2.32},
      {"variant": "EPLPVETDPAAGAAPFRFVARPVR", "note": "[R7T]", "protein stability index": 3},
      {"variant": "EPLPVEWDPAAGAAPFRFVARPVR", "note": "[R7W]", "protein stability index": 1.05},
      {"variant": "EPLPVEMDPAAGAAPFRFVARPVR", "note": "[R7M]", "protein stability index": 2.09},
      {"variant": "EPLPVEVDPAAGAAPFRFVARPVR", "note": "[R7V]", "protein stability index": 2.42},
      {"variant": "EPLPVECDPAAGAAPFRFVARPVR", "note": "[R7C]", "protein stability index": 2.06},
      {"variant": "EPLPVESDPAAGAAPFRFVARPVR", "note": "[R7S]", "protein stability index": 2.34},
      {"variant": "EPLPVEHDPAAGAAPFRFVARPVR", "note": "[R7H]", "protein stability index": 2.57},
      {"variant": "EPLPVELDPAAGAAPFRFVARPVR", "note": "[R7L]", "protein stability index": 2.82},
      {"variant": "EPLPVEFDPAAGAAPFRFVARPVR", "note": "[R7F]", "protein stability index": 2.1},
      {"variant": "EPLPVEADPAAGAAPFRFVARPVR", "note": "[R7A]", "protein stability index": 2.25},
      {"variant": "EPLPVEKDPAAGAAPFRFVARPVR", "note": "[R7K]", "protein stability index": 2.12},
      {"variant": "EPLPVEEDPAAGAAPFRFVARPVR", "note": "[R7E]", "protein stability index": 3.03},
      {"variant": "EPLPVEGDPAAGAAPFRFVARPVR", "note": "[R7G]", "protein stability index": 2.1},
      {"variant": "EPLPVEIDPAAGAAPFRFVARPVR", "note": "[R7I]", "protein stability index": 2.91},
      {"variant": "EPLPVEPDPAAGAAPFRFVARPVR", "note": "[R7P]", "protein stability index": 2.22},
      {"variant": "EPLPVEYDPAAGAAPFRFVARPVR", "note": "[R7Y]", "protein stability index": 1.75},
      {"variant": "EPLPVEDDPAAGAAPFRFVARPVR", "note": "[R7D]", "protein stability index": 2.9},
      {"variant": "EPLPVEQDPAAGAAPFRFVARPVR", "note": "[R7Q]", "protein stability index": 2.65},
      {"variant": "EPLPVERDMAAGAAPFRFVARPVR", "note": "[P9M]", "protein stability index": 2.73},
      {"variant": "EPLPVERDHAAGAAPFRFVARPVR", "note": "[P9H]", "protein stability index": 2.59},
      {"variant": "EPLPVERDLAAGAAPFRFVARPVR", "note": "[P9L]", "protein stability index": 2.42},
      {"variant": "EPLPVERDSAAGAAPFRFVARPVR", "note": "[P9S]", "protein stability index": 2.08},
      {"variant": "EPLPVERDFAAGAAPFRFVARPVR", "note": "[P9F]", "protein stability index": 2.17},
      {"variant": "EPLPVERDAAAGAAPFRFVARPVR", "note": "[P9A]", "protein stability index": 1.72},
      {"variant": "EPLPVERDYAAGAAPFRFVARPVR", "note": "[P9Y]", "protein stability index": 2.12},
      {"variant": "EPLPVERDGAAGAAPFRFVARPVR", "note": "[P9G]", "protein stability index": 1.96},
      {"variant": "EPLPVERDRAAGAAPFRFVARPVR", "note": "[P9R]", "protein stability index": 1.54},
      {"variant": "EPLPVERDNAAGAAPFRFVARPVR", "note": "[P9N]", "protein stability index": 2.24},
      {"variant": "EPLPVERDKAAGAAPFRFVARPVR", "note": "[P9K]", "protein stability index": 1.46},
      {"variant": "EPLPVERDQAAGAAPFRFVARPVR", "note": "[P9Q]", "protein stability index": 1.98},
      {"variant": "EPLPVERDDAAGAAPFRFVARPVR", "note": "[P9D]", "protein stability index": 2.38},
      {"variant": "EPLPVERDWAAGAAPFRFVARPVR", "note": "[P9W]", "protein stability index": 1.33},
      {"variant": "EPLPVERDTAAGAAPFRFVARPVR", "note": "[P9T]", "protein stability index": 2.74},
      {"variant": "EPLPVERDEAAGAAPFRFVARPVR", "note": "[P9E]", "protein stability index": 2.2},
      {"variant": "EPLPVERDCAAGAAPFRFVARPVR", "note": "[P9C]", "protein stability index": 2.34},
      {"variant": "EPLPVERDIAAGAAPFRFVARPVR", "note": "[P9I]", "protein stability index": 2.34},
      {"variant": "EPLPVERDVAAGAAPFRFVARPVR", "note": "[P9V]", "protein stability index": 1.92},
      {"variant": "EPLPVERDPHAGAAPFRFVARPVR", "note": "[A10H]", "protein stability index": 1.87},
      {"variant": "EPLPVERDPQAGAAPFRFVARPVR", "note": "[A10Q]", "protein stability index": 2.11},
      {"variant": "EPLPVERDPIAGAAPFRFVARPVR", "note": "[A10I]", "protein stability index": 2.44},
      {"variant": "EPLPVERDPNAGAAPFRFVARPVR", "note": "[A10N]", "protein stability index": 3.07},
      {"variant": "EPLPVERDPFAGAAPFRFVARPVR", "note": "[A10F]", "protein stability index": 1.64},
      {"variant": "EPLPVERDPCAGAAPFRFVARPVR", "note": "[A10C]", "protein stability index": 1.88},
      {"variant": "EPLPVERDPGAGAAPFRFVARPVR", "note": "[A10G]", "protein stability index": 2.17},
      {"variant": "EPLPVERDPEAGAAPFRFVARPVR", "note": "[A10E]", "protein stability index": 2.99},
      {"variant": "EPLPVERDPDAGAAPFRFVARPVR", "note": "[A10D]", "protein stability index": 2.46},
      {"variant": "EPLPVERDPKAGAAPFRFVARPVR", "note": "[A10K]", "protein stability index": 1.72},
      {"variant": "EPLPVERDPLAGAAPFRFVARPVR", "note": "[A10L]", "protein stability index": 2.71},
      {"variant": "EPLPVERDPRAGAAPFRFVARPVR", "note": "[A10R]", "protein stability index": 2.55},
      {"variant": "EPLPVERDPPAGAAPFRFVARPVR", "note": "[A10P]", "protein stability index": 2.41},
      {"variant": "EPLPVERDPMAGAAPFRFVARPVR", "note": "[A10M]", "protein stability index": 2.11}
    ]},
    {"variants_of": "B2", "experiment": "protein stability index of a GFP-peptide fusion (GPS, HEK-293T) (PSI 1-6); higher = more stable", "conditions": "c terminus: a fixed tail appended", "values": [
      {"variant": "CALNALTTTVCLVAAALRYLQIFP", "note": "[A24P]", "protein stability index": 2.09},
      {"variant": "CALNALTTTVCLVAAALRYLQIFY", "note": "[A24Y]", "protein stability index": 3.32},
      {"variant": "CALNALTTTVCLVAAALRYLQIFS", "note": "[A24S]", "protein stability index": 4.25},
      {"variant": "CALNALTTTVCLVAAALRYLQIFV", "note": "[A24V]", "protein stability index": 3.43},
      {"variant": "CALNALTTTVCLVAAALRYLQIFW", "note": "[A24W]", "protein stability index": 2.96},
      {"variant": "CALNALTTTVCLVAAALRYLQIFT", "note": "[A24T]", "protein stability index": 3.23}
    ]}
  ]
}
